Source: patent US8691772B2, “HSP60, HSP60 peptides and T cell vaccines for immunomodulation” (Yeda Research and Development Co. Ltd., priority 2005, dated 2014)

What was measured:
human T cells [1] = experiment: T-cell migration assay towards SDF-1α, human T cells; type: cell-based; conditions: 1 hr pre-incubation
Description: Human cells. […] Human umbilical cord vein endothelial cells (HUVEC) were isolated from umbilical cord veins and cultured as described (Ponomaryov et al., 2000). Primary cultures were serially passaged, and passages 2 and 3 were taken for experiments.
T-cell migration assay. Migration of ^51[Cr]-labeled human and mouse T cells through FN or endothelial cells to recombinant human SDF-1α was examined in 48-well Transwell chemotaxis apparatus (5-μm pore filters, 6.5-mm diameter; Corning, N.Y.), as previously described (Zanin-Zhorov et al., 2003b). For transendothelial migration assays, 2×10^4 cells of HUVEC were layered on the filters and grown in 10% FCS M199 for 2 days before the performance of each assay. Then, HUVEC were stimulated with TNF-α (50 ng/ml) for 24 hr and washed.

SOCS3 = SOCS3 expression in mouse lymphocytes / T cells (immunoblot); type: cell-based; conditions: for SOCS3 expression: 1 ng/ml, 1 hr
Description: Mice and mouse T cells. Female C57BL/6J were obtained from Harlan Olac (Bicester, U.K.). TLR2-knockout mice on the C57BL/6J background were kindly provided by Dr. S. Akira (Osaka University, Osaka, Japan). CD3^+ T cells were isolated by negative selection with anti-mouse antibody cocktail (Pan T cell kit; Miltenyi Biotec; CITY Germany). The labeled cells were then passed through separation columns (MidiMACS columns, Miltenyi Biotec). The purified cells (>97% T cells) were untreated or treated with HSP60 as described. Similarly, T cells were purified from the lymph nodes of BALB/c mice (females, 1.5 months of age).
Western blotting of T-cell lysates. T cells were incubated (24 hr, 37° C.) in starvation medium (RPMI medium without serum). Aliquots (5×10^6/sample) of the starved cells were preincubated (for various intervals) with different concentrations of HSP60 prior to exposure to SDF-1α (100 ng/ml, 10 min, 37° C., tissue culture conditions). These reactions were terminated by freezing the plates (−70° C., 10 min). The plates were thawed, and the cells solubilized by incubating (60 min, 4° C.) in lysis buffer [EDTA (0.5 mM), NaCL (150 mM), NaF (10 nM), Tris pH 7.5 (25 mM), Triton X-100 (1%), PMSF (200 pg/ml), and phosphatase inhibitor cocktail (1%)]. Lysates were cleared by centrifugation (30 min, 14×10^3 rpm, 4° C.), and the resulting supernatants analyzed for protein content. Sample buffer was added, the samples were boiled, and equal amounts of proteins were separated by 10% SDS-PAGE and transferred to nitrocellulose membranes. […] Phosphorylation levels of the 3-5 independent experiments were estimated by densitometry, and an average percentage of phosphorylation±SD was calculated as OD of pERK/tERK, or pPyk2/tPyk2, or pAKT/tAKT, pMLC/tMLC, or pSTAT3/tSTAT3×100%.

CD8^+ T cells = experiment: Co-culture of treated CD4+CD25+ T cells with CD8+ T cells; type: cell-based, human; conditions: 1% or more HSP60-treated CD4+CD25+ T cells; anti-CD3 24 hr
T-bet and GATA-3 [2] = experiment: T-bet and GATA-3 expression in human T cells; type: cell-based
Experimental: (§1) Western blot analysis of T-cell nuclear extracts. Purified T cells (5×10^6) were preincubated with different concentrations of HSP60 for the indicated periods of time (37° C. in a 7% CO2, humidified atmosphere). […] T cells were lysed in 10 mM HEPES, 1.5 mM MgCl2, 1 mM dithiothreitol (DTT), 1 mM PMSF, 0.5% Nonidet P-40. The lysates were incubated on ice for 10 min and centrifuged at 2000 rpm for 10 min at 4° C. The supernatants (cytoplasmic extracts) were transferred and the pellet (nuclei) was suspended in buffer containing 30 mM HEPES, 450 mM NaCl, 25% Glycerol, 0.5 mM EDTA, 6 mM DTT, 12 mM MgCl2 1 mM PMSF, 10 μg/ml leupeptin, 10 μg/ml pepstatin, 1% phosphatase inhibitor cocktail, and the suspension was incubated on ice for 30 min. The lysates were cleared by centrifugation (30 min, 14×10^3 rpm, 4° C.), and the resulting supernatants analyzed for protein content. For NFATp analysis nuclear extracts were prepared with a NE-PER Nuclear and Cytoplasmic Extraction reagent (Pierce, Rockford, Ill.) according to the manufacturer's protocol. Sample buffer was then added and, after boiling, the samples, containing equal amounts of proteins, were separated on 10% SDS-PAGE gel and transferred to nitrocellulose membranes. The membranes were blocked with TBST buffer containing low-fat milk (5%), Tris pH 7.5 (20 mM), NaCl (135 mM) and Tween 20 (0.1%), and probed with the following mAb in the same buffer: anti-NF-κb (diluted 1:1000), anti-total (t) ERK (diluted 1:20,000), anti-NFATp (diluted 1:500), anti T-bet (diluted 1:1000), anti-GATA-3 (diluted 1:1000), anti-Lamin B (diluted 1:1000). Immunoreactive protein bands were visualized using labeled secondary antibodies and the enhanced ECL system.

T-bet and GATA-3 [3] = experiment: T-bet and GATA-3 expression in oxazolone-reactive mouse T cells; type: cell-based; conditions: 1 ng/ml for 2 hr
Experimental: as §1, with “The membranes were blocked with TBST buffer containing low-fat milk (5%), Tris pH 7.5 (20 mM), NaCl (135 mM) and Tween 20 (0.1%), and probed with the following mAb in the same buffer: anti-NF-κb (diluted 1:1000), anti-total (t) ERK (diluted 1:20,000), anti-NFATp (diluted 1:500), anti T-bet (diluted 1:1000), anti-GATA-3 (diluted 1:1000), anti-Lamin B (diluted 1:1000). Immunoreactive protein bands were visualized using labeled secondary antibodies and the enhanced ECL system.” left out

human T cells [4] = experiment: Cytokine secretion of anti-CD3-activated purified human T cells
Experimental: Human T cells. T cells were purified from the peripheral blood of healthy human donors (Blood Bank; Tel-Hashomer, Israel). The whole blood was incubated (20 min, 22° C.) with RosetteSep™ human T-cell enrichment cocktail (StemCell Technologies, Vencouver, BC, Canada). The remaining unsedimented cells were then loaded onto Lymphocyte Separation Medium (ICN Biomedicals; Belgium), isolated by density centrifugation, and washed with PBS. The purified cells (>95% CD3^+ T cells) so obtained were cultured in RPMI containing antibiotics and 10% heat-inactivated FCS.
Cytokine secretion. T cells (2×10^6 cells per ml) were activated (1 hr, 37° C.) with the indicated concentrations of HSP60 in 24-well plates in RPMI containing 10% heat-inactivated FCS. The cells were then washed and re-plated at the same concentration on anti-CD3 mAb pre-coated 24-well plates (0.5 μg/ml; non tissue culture grade plates) in serum free medium containing 0.1% BSA at 4° C. for 24 hr. The supernatants were collected, and the cytokine content (TNF-α, IFN-γ, and IL-10) was determined by ELISA, using the appropriate mAb, according to the manufacturer's instructions.

[5] = 1 ng/ml and 1 μg/ml, no anti-CD3

B1: HSP60: recombinant human heat shock protein 60 (StressGen Biotechnologies) (protein)
chain: AKDVKFGADARALMLQGVDLLADAVAVTMGPKGRTVIIEQSWGSPKVTKDGVTVAKSIDLKDKYKNIGAKLVQDVANNTNEEAGDGTTTATVLARSIAKEGFEKISKGANPVEIRRGVMLAVDAVIAELKKQSKPVTTPEEIAQVATISANGDKEIGNIISDAMKKVGRKGVITVKDGKTLNDELEIIEGMKFDRGYISPYFINTSKGQKCEFQDAYVLLSEKKISSIQSIVPALEIANAHRKPLVIIAEDVDGEALSTLVLNRLKVGLQVVAVKAPGFGDNRKNQLKDMAIATGGAVFGEEGLTLNLEDVQPHDLGKVGEVIVTKDDAMLLKGKGDKAQIEKRIQEIIEQLDVTTSEYEKEKLNERLAKLSDGVAVLKVGGTSDVEVNEKKDRVTDALNATRAAVEEGIVLGGGCALLRCIPALDSLTPANEDQKIGIEIIKRTLKIPAMTIAKNAGVEGSLIVEKIMQSSSEVGYDAMAGDFVNMVEKGIIDPTKVVRTALLDAAGVASLLTTAEVVVTEIPKEEKDPGMGAMGGMGGGMGGGMF
Human T cells [1]
  SDF-1α-induced T-cell chemotaxis through TNF-α-activated endothelial cells: significant inhibition of T-cell chemotaxis toward SDF-1α
Human T cells [1]; various concentrations
  SDF-1α-induced T-cell chemotaxis through fibronectin: significant inhibition of T-cell chemotaxis toward SDF-1α
SOCS3; BALB/c lymph node cells
  expression of SOCS3: induced the expression of SOCS3 in BALB/c lymph node cells
SOCS3; T cells from TLR2-knockout mice
  SOCS3 expression: SOCS3 expression remained at the low levels of untreated cells
SOCS3; wild type C57BL/6J-derived T cells
  SOCS3 expression: induced SOCS3 expression at levels similar to those induced by HSP60 in human T cells
CD8^+ T cells
  inhibition of IFN-γ or TNF-α secretion in co-culture with CD8+ T cells: 3-4 fold
T-bet and GATA-3 [2]; 1 ng/ml and 1 μg/ml, 1 hr pre-treatment
  T-bet expression induced by anti-CD3: significantly (P<0.05) inhibited the T-bet expression induced by the anti-CD3
T-bet and GATA-3 [2]; [5]
  protein level of GATA-3: significantly (P<0.01) up-regulated the protein level of GATA-3
  protein level of T-bet: but not of T-bet
T-bet and GATA-3 [2]; 1 hr pre-incubation
  GATA-3 expression with anti-CD3: significantly up-regulated the expression level of GATA-3
T-bet and GATA-3 [3]
  GATA-3 expression: up-regulation of GATA-3 expression
  T-bet expression: down-regulation of T-bet
Human T cells [4]
  effect on cytokine secretion at doses in the order of 10 ng/ml: did not appear to affect cytokine secretion
  secretion of IL-4 and IL-13: increases the secretion
Human T cells [4]; HSP60 alone
  cytokine secretion without anti-CD3: did not induce cytokine secretion from the T cells
Human T cells [4]; P<0.05
  higher concentrations at which cytokine secretion was again affected: 0.1 to 1 µg/mL
  low concentrations with significant effects on cytokine secretion: 0.1 to 1.0 ng/mL
